Laboratory results from patent US6495314B1, “Process for characterizing proteins” (The Scripps Research Institute, priority 1995, dated 2002).
Entries after “also recorded” stand apart in the source; their conditions may differ.

Target: T1, C3G-peptide (Homo sapiens, UniProt Q13905)
T1 construct: made in house; host or cells: chemical synthesis
Experiment: Binding of Crk-N to the C3G-peptide in solution
Conditions: purified synthetic Crk-N
Source text: FIG. 3 illustrates preliminary iterative signature analysis data on residues 156-165 of the peptide Crk-N. a) Represents a comparison of the elution profiles obtained for the protein family using a C3G-peptide agarose column and a Leucine-Enkephalin agarose column (control). […] Single letters refer to amino acid pairs substituted with the -Gly-SCH2CH2CO— marker. d) Comparison of the MALDI MS spectra of the ammonium acetate wash and the entire 9 component synthetic Crk-N family cleaved with ammonium acetate. In both cases the N-terminal peptide ladder is observed at a much higher intensity than the equimolar C-terminal peptide ladder.
The folded protein was structurally characterized by NMR and crystallization (The folded protein was characterized by two dimensional NOESY 1H NMR spectroscopy. In addition, the synthetic protein solution used for NMR analysis spontaneously formed crystals upon storage at 4° C. These crystals diffracted to >2.3 Å allowing for the solution by molecular replacement. Refinement of the structure is in progress). The resulting synthetic protein domain was then assayed for its affinity for two different proline-rich peptides. […] This change in solvent exposure leads to an increase in the fluorescence intensity of the tryptophan sidechain which can be monitored as a function of increasing ligand concentration (Feng et al. Science 1994.266, 1241-1245). […]

**Q.** For CC[C@H](C)[C@H](NC(=O)[C@H](CC(=O)O)NC(=O)CNC(=O)[C@H](CCCCN)NC(=O)[C@H](CCCCN)NC(=O)[C@H](Cc1ccccc1)NC(=O)[C@@H]1CCCN1C(=O)[C@H](CC(C)C)NC(=O)[C@H](CC(=O)O)NC(=O)[C@H](CCC(=O)O)NC(=O)[C@H](CCC(=O)O)NC(=O)[C@H](CC(=O)O)NC(=O)[C@H](CC(N)=O)NC(=O)CNC(=O)[C@H](CC(N)=O)NC(=O)[C@H](Cc1ccccc1)NC(=O)[C@H](CC(=O)O)NC(=O)[C@H](Cc1ccccc1)NC(=O)[C@H](CC(C)C)NC(=O)[C@H](C)NC(=O)[C@H](CCCNC(=N)N)NC(=O)[C@@H](NC(=O)[C@H](Cc1ccc(O)cc1)NC(=O)[C@H](CCC(=O)O)NC(=O)[C@H](C)N)C(C)C)C(=O)N[C@@H](CC(C)C)C(=O)N[C@@H](CCCNC(=N)N)C(=O)N[C@H](C(=O)N[C@@H](CCCNC(=N)N)C(=O)N[C@@H](CC(=O)O)C(=O)N[C@@H](CCCCN)C(=O)N1CCC[C@H]1C(=O)N[C@@H](CCC(=O)O)C(=O)N[C@@H](CCC(=O)O)C(=O)N[C@@H](CCC(N)=O)C(=O)N[C@@H](Cc1c[nH]c2ccccc12)C(=O)N[C@@H](Cc1c[nH]c2ccccc12)C(=O)N[C@@H](CC(N)=O)C(=O)N[C@@H](C)C(=O)N[C@@H](CCC(=O)O)C(=O)N[C@@H](CC(=O)O)C(=O)N[C@@H](CO)C(=O)N[C@@H](CCC(=O)O)C(=O)NCC(=O)N[C@@H](CCCCN)C(=O)N[C@@H](CCCNC(=N)N)C(=O)NCC(=O)N[C@@H](CCSC)C(=O)N[C@H](C(=O)N1CCC[C@H]1C(=O)N[C@H](C(=O)N1CCC[C@H]1C(=O)N[C@@H](Cc1ccc(O)cc1)C(=O)N[C@H](C(=O)N[C@@H](CCC(=O)O)C(=O)N[C@@H](CCCCN)C(=O)N[C@@H](Cc1ccc(O)cc1)C(=O)N[C@@H](CCCNC(=N)N)C(=O)O)C(C)C)C(C)C)[C@@H](C)CC)[C@@H](C)CC [synthetic Crk-N], which Kd is on record?
**A.** The Kd was 2300 nM.

Target: T2, C3G-derived synthetic peptide (Homo sapiens, UniProt Q13905)
T2 construct: made in house; host or cells: chemical synthesis on 4-methyl benzhydrylamine resin
Experiment: C3G-derived synthetic peptide affinity column binding with MALDI readout
Conditions: Gly-[COS]-βAla analogue unit; 19-member array, residues 146-165 of c-Crk SH3 domain (Example 3)
Method: An affinity column carrying a synthetic C3G derived peptide was prepared by reaction of the cysteine side chain of Acetyl-CWAcp-[…].amide (SEQ NO ID NO 14) with an iodoacetylated agarose matrix. The linker Acetyl-CWAcp- was designed to combine a reactive sulfhydryl on the Cys sidechain with a spectroscopic tag in the Trp residue, and to introduce a flexible spacer region between the support and the peptide ligand in the form of ε-aminocaproic acid. The amount of peptide on the column, was determined as 5 μmol/mL of the swollen agarose matrix from the absorbance at 280 nm of the peptide solution before and after reaction with the column.
The column was then washed with 0.5 M NaCl buffer to remove nonspecific binding proteins from the column. Specifically bound protein analogues were then eluted with 1 M hydroxylamine bufffer. Amounts of eluted peptide were monitored by UV absorbance at 280 nm. This procedure was used for both the C3G peptide column and for the control column loaded with Ac-C-AcpYGGFL.amide. The hydroxylamine cleavage of the thioester bond results in the elution of peptide fragments corresponding to the proteins which were able to bind to the affinity column under these conditions. Specific binding was found only for the C3G peptide column.
The composition of the parent array of SH3 protein analogues, as well as the binding and non-binding fractions obtained from affinity chromatography was determined by chemical cleavage and MALDI MS. First, the parent array of folded protein analogues and the 0.5 M NaCl wash from the affinity chromatography of the array were cleaved separately with hydroxylamine. After a desalting step, MALDI mass spectra were obtained for the peptide fragments generated from the (parent) protein array, the salt wash (non-binding) and for the peptide fragments generated by the hydroxylamine elution of the specifically bound analogues (binding). Nine components were present in the array of protein analogues that was added to the C3G column as one mixture (FIG. 26A). […] Three protein analogues, however, were able to bind to the C3G peptide on the column and were eluted only after cleavage with hydroxylamine (FIG. 26C). One of the protein analogues can be identified in both the wash and elution spectra, indicating intermediate folding and/or binding properties for this analogue.
The C3G-derived synthetic peptide affinity column was prepared by adding 10 mg of lyophilized Ac-CWAcp[…].amide (SEQ ID NO 24) (Acp=ε-amino caproic acid) in 2 mL of 50 mM Tris, 5 mM EDTA, pH 8.0 buffer to Sulfolink™ resin (Pierce), equilibrated in the same buffer, for 1 hour while shaking. Unreacted iodoalkyl groups on the resin were then blocked by treatment with 50 mM cystamine, 50 mM Tris, 5 mM EDTA, pH 8.0 buffer for 1 hour. The loading of the column was determined by UV absorbance of the unreacted peptide solution and was approximately 5 μmol/mL. A similar procedure was used to attach the control peptide Ac-CAcpYGGFL.amide (SEQ ID NO 25) to the another batch of the Sulfolink™ support.
Lyophilized crude synthetic polypeptide corresponding to the cCrk SH3 domain (1.5 mg) and BSA (8.5 mg) were dissolved in 20 mM HEPES, 50 mM NaCl, pH 7.3 buffer (400 μL) and loaded on to a 1 mL C3G-derived synthetic peptide affinity column pre-equilibrated with the same buffer. The column was washed with 4 mL each of 50 mM NaCl, 100 mM NaCl, 200 mM NaCl, 300 mM NaCl, 400 mM NaCl, 500 mM NaCl and 1000 mM NaCl, 0.1 M phosphate, pH 7.0 buffer. The column was then washed with 1 M NH2OH 200 mM NH4CO3 pH 6.0 (4 mL) and finally eluted in 6M Gn.HCl 100 mM phosphate pH 6.5 (4 mL). Samples from all column fractions were monitored by absorbance at 280 nm and by HPLC.
Affinity chromatography of the arrays of protein analogues was carried out as follows. […]

**Q.** For “R^162D^163: c-Crk SH3 domain analogue, dipeptide R162D163 replaced by Gly-[COS]-βAla”, which “binding to C3G peptide affinity column, active (binding) pool” value (from here on “binding to C3G peptide affinity column”) is on record?
**A.** Its value is “displayed appreciable binding; also recorded: without significant loss of binding activity”.

**Q.** Which “binding to C3G peptide affinity column” value does the source give for “D^163K^164: c-Crk SH3 domain analogue, dipeptide D163K164 replaced by Gly-[COS]-βAla” here?
**A.** Its value is “displayed appreciable binding; also recorded: without significant loss of binding activity”.

**Q.** With “L^151P^152: c-Crk SH3 domain analogue, dipeptide L151P152 replaced by Gly-[COS]-βAla” as the molecule, how does the “binding to C3G peptide affinity column” value read?
**A.** The value was “displayed appreciable binding”.

**Q.** Which “binding to C3G peptide affinity column” value does the source give for “I^161R^162: c-Crk SH3 domain analogue, dipeptide I161R162 replaced by Gly-[COS]-βAla” here?
**A.** Its value is “displayed appreciable binding; also recorded: without significant loss of binding activity”.

**Q.** For “N^146D^147: c-Crk SH3 domain analogue, dipeptide N146D147 replaced by Gly-[COS]-βAla”, which “binding to C3G peptide affinity column” value is on record?
**A.** The value was “displayed appreciable binding”.

**Q.** Which “binding to C3G peptide affinity column” value does the source give for “E^148E^149: c-Crk SH3 domain analogue, dipeptide E148E149 replaced by Gly-[COS]-βAla” here?
**A.** Its value is “displayed appreciable binding”.

**Q.** With “D^147E^148: c-Crk SH3 domain analogue, dipeptide D147E148 replaced by Gly-[COS]-βAla” as the molecule, how does the “binding to C3G peptide affinity column” value read?
**A.** The value was “displayed appreciable binding”.

**Q.** For “K^164P^165: c-Crk SH3 domain analogue, dipeptide K164P165 replaced by Gly-[COS]-βAla”, which “binding to C3G peptide affinity column” value is on record?
**A.** The value was “displayed appreciable binding; also recorded: without significant loss of binding activity”.

Target: T1, C3G-peptide
Experiment: not given
Conditions: recombinant Crk-N; read-out: KD for binding the C3G-peptide in solution; cited from earlier work

**Q.** With “recombinant Crk-N: recombinantly derived cCrk SH3 domain reported by Wu et al. Structure 1995” as the molecule, how does the Kd read?
**A.** The Kd was 1900 nM.
